Assays:
[1] = molecular target: T1, RPA p70 DBD-A/B (Homo sapiens, UniProt P27694 P27694:181-422); test: FP; 20 nM DNA; 10 mM HEPES pH 7.2, 100 mM NaCl; inhibited irreversibly by CheSS19; details: tags: His (pET15b, nickel-NTA purified); label: fluorescein (F)
T1 chain: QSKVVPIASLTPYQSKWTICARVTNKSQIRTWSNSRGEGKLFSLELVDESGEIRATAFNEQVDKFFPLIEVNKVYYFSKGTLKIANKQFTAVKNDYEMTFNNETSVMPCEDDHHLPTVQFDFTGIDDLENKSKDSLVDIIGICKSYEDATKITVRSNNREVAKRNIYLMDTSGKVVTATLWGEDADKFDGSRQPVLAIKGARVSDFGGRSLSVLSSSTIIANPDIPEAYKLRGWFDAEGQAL
Experimental: In an experiment reported herein, DBD-A/B was incubated with CheSS 19 and then the reaction mix dialyzed overnight to remove dissociable inhibitor.
Referring now to FIG. 3D. Bar graph showing results of fluorescence polarization analysis of CheSS19 inactivated RPA DBD-A/B. Referring now to FIG. 3D, RPA DBD-A/B was pre-incubated with vehicle (1% DMSO) or CheSS19 (1pmol in 1% DMSO) for 30 minutes at 37° C. Following incubation, the reaction mix was dialyzed versus H1 buffer overnight at 4° C. The protein was recovered and DNA binding activity measured by FP analysis of binding to an F-dT12 substrate was performed as described in "Methods". Bar 1, DNA control, Bar 2, control vehicle treated DBD-A/B, Bar 3, Chess19 treated DBD-A/B. The data represent the mean and range of two independent experiments.
Fluorescence polarization experiments were preformed as previously described (21). SMIs were diluted in H1 buffer (10 mM HEPES, pH 7.2, 1 mM DTT, 0.01% NP-40 and 100 mM NaCl) and the final DMSO concentration was kept below 1%.

[2] = molecular target: T1, RPA p70 DBD-A/B; test: EMSA; not inhibited by MCI13E or MCI13F; details: tags: His (pET15b, nickel-NTA purified); label: 5'-32P
[3] = molecular target: EcSSB (Escherichia coli, UniProt P0AGE0 P0AGE0:2-178); test: EMSA; 25 nM DNA, 3.3 nM SSB tetramer, 20 mM HEPES pH 7.5, 100 mM NaCl; unaffected by CheSS19, MCI13E, MCI13F; details: tags: Enzymatics, Beverly MA; chain copies: 4 stated; label: 5'-32P
Experimental: Referring now to FIG. 6B. CheSS19 titration in EcSSB DNA-binding reactions. CheSS19 (0, 25, 50, 100, and 200 μM) was pre-incubated with EcSSB and binding reactions were carried out. Referring now to FIG. 6C. Titration of MCI13E and MCI13F in EcSSB DNA-binding reactions. Concentrations of MCI13E/F used were: 0, 25, 50, 100, and 200 μM. In all panels, the 'Free' ssDNA is indicated with an arrow and the 'Bound' ssDNA is indicated by brackets. All reactions were performed in the same order and manner as the RPA binding reactions. EcSSB binding was unaffected by CheSS19 and the MCI13E and MCI13F compounds (FIGS. 6A and B).
EMSAs were performed similarly to those for the RPA constructs, with the following exceptions. Reactions contained 25 nM of 5'-[^32P]-labeled 3Pc3 ssDNA and 3.3 nM (assuming homotetramer formation) SSB protein (Enzymatics, Beverly, Mass.). Reactions (20 μL) were carried out in 20 mM HEPES, pH 7.5, 1 mM DTT, 0.01% NP-40, 100 mM NaCl, and resolved by 6% native polyacrylamide gel electrophoresis at 25 mA for 2 hours. Gels were dried and quantified via phosphorimager analysis and ImageQuant software (Molecular Dynamics).

[4] = molecular target: T2, RPA heterotrimer (p70/p34/p14, full-length) (Homo sapiens, UniProt P27694;P15927;P35244 P27694:1-616,P15927:1-270,P35244:1-121); test: EMSA; 12.5 nM DNA; binding inhibited by MCI13E, MCI13F and CheSS19; details: tags: untagged; label: 5'-32P
[5] = molecular target: T2, RPA heterotrimer (p70/p34/p14, …); test: EMSA; inhibited irreversibly by MCI13E; details: tags: untagged; label: 5'-32P
Experimental: Considering the differential inhibition observed between the anhydride and halo esters with respect to specificity, experiments were carried out to determine if the isoborneol halo-esters inhibited full-length RPA in an irreversible fashion. Full-length RPA was mixed with MCI13E or vehicle control and the reaction mixtures were then dialyzed overnight. Referring now to FIG. 5. Gel showing irreversible inactivation of full-length heterotrimeric RPA by MCI13E. Incubation of RPA with MCI13E, dialysis and recovery was performed as described for FIG. 3. DNA binding activity of the resulting protein was assessed by EMSA using a 5'-[^32P]-ss 34-base DNA as described in "Methods". Lanes 1-4 pre-dialysis, lanes 5 and 6 post dialysis. […] In fact, the degree of inhibition was similar to that observed for the MCI13E treated RPA before dialysis (FIG. 5 lanes 3 and 4). […] This activity is consistent with MCI13E and F and their reaction with RPA serving as a pharmacodynamic marker of RPA inhibition or as a biomarker for RPA expression and activity.

T2 sequence (P27694 whole entry, chain 1 of 3): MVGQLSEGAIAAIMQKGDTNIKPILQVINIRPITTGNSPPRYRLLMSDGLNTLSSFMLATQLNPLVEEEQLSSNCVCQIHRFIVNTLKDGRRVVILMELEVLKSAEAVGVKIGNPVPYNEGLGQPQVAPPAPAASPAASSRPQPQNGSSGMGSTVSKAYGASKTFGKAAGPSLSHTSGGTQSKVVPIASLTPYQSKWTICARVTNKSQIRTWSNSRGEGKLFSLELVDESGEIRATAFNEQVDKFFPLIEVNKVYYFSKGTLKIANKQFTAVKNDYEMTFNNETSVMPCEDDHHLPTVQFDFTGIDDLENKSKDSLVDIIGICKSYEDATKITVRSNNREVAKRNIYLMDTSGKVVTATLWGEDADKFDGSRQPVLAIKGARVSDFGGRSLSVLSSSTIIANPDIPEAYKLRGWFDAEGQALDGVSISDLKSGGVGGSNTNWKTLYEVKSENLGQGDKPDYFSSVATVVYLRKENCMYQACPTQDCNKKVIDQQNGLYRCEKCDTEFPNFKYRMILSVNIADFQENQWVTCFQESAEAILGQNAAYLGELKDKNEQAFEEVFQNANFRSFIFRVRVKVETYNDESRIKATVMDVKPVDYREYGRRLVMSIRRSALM
T2 sequence (P15927 whole entry, chain 2 of 3): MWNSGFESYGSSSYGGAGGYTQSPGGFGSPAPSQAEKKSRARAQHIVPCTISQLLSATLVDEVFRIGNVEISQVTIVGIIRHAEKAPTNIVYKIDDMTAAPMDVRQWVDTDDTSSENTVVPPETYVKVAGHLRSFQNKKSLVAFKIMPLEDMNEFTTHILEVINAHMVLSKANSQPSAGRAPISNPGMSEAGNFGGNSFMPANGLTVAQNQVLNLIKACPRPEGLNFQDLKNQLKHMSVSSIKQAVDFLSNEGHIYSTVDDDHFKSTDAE
T2 sequence (P35244 whole entry, chain 3 of 3): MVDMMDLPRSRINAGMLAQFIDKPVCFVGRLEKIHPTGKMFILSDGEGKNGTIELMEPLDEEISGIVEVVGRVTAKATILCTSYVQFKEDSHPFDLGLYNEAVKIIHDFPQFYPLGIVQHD
Chain of EcSSB (P0AGE0 2-178, one chain of several): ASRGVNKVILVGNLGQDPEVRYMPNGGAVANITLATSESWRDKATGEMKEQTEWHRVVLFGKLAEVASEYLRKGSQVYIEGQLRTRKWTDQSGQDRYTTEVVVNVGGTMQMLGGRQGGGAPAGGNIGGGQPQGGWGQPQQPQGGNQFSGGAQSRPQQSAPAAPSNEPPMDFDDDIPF

B1: F-dT12 (ssDNA)
DNA: TTTTTTTTTTTT
B1: binds [1].

B2: dT12 (ssDNA)
DNA: TTTTTTTTTTTT
B2: binds [2].

B3: 3Pc3 30-mer (ssDNA)
DNA: GGAGACCGAAGAGGAAAAGAAGGAGAGAGG
B3: binds [3]; binds [4].

B4: 34-mer (ssDNA)
DNA: CTAGAAAGGGGGAAGAAAGGGAAGAGGCCAGAGA
B4: binds [5].

From patent US8980955, “Small molecule inhibitors of replication protein A that also act synergistically with cisplatin” (Indiana University Research and Technology)
